# From PMC6713331
# B1: BFRF2 (natural protein)
# chain: MALFLARHTLSGTGAGCHGRGPAPDVSEVDLTLQALGERGFSRLLDLGLACLDLSYVEMREFVVWGRPPASEAAVASTPGSLFRSHSSAYWLSEVERPGGLVRWARSQTSPSSLTLAPHLGPSLLSLSVVTGGGCGAVAFCNAFFLAYFLVVRSVFPAFSDRIAAWICDRSPFCENTRAVARGYRGLVKRFLAFVFERSSYDPPLLRQNSRPVERCFAIKNYVPGLDSQSCVTVPSFSRWAQSHASELDPREIRDRVTPATAPSFVADHASALLASLQKKASDTPCGNPIQWMWYRLLVNSCLRSAHCLLPIPAVSEGGRKTGGGVGEELVGAGGPCLSRDVFVAIVSRNVLSCLLNVPAAGPRAYKCFRSHASRPVSGPDYPPLAVFCMDCGYCLNFGKQTGVGGRLNSFRPTLQFYPRDQKEKHVLTCHASGRVYCSNCGSAAVGCQRLAEPPSARSGWRPRIRAVLPHNAAYELDRGSRLLDAIIPCLGPDRTCMRPVVLRGVTVRQLLYLTLRTEARAVCSICQQRQAPEDARDEPHLFSSCLEVELPPGERCAGCRLYQTRYGTPAAQAHPPGEAGGGFSRQSPAS
# Target: FLAG-tagged BVLF1 (Epstein-Barr virus)
# Experiment: co-IP; FLAG-tagged BVLF1 as bait with BFRF2 together with BGLF3 or BGLF3(T42A) in 2089 cells; anti-FLAG M2 agarose; anti-Myc blot; quantitation from two independent experiments
binder,measurement,value
B1,fold increase of the BVLF1-BFRF2 interaction with wild type BGLF3 relative to no BGLF3,6 fold
